Reference: article PMC2563799
Read-outs that look alike come from different tables or passages of the source.

Assays:
Experiment in all cases: thiol-disulfide exchange
Ibα-TM (human) [1] = molecular target: Ibα-TM (human)
Ibα-TM (human) [2] = molecular target: Ibα-TM (human); remark: listed apart in the source
Ibα-TM (human) [3] = molecular target: Ibα-TM (human); remark: listed apart in the source
[4] = molecular target: (Ibβ-TM)-SS-(Ibα-TM)-SS-(Ibβ-TM) peptide complex (human)
[5] = molecular target: (Ibβ-TM)-SS-(Ibα-TM)-SS-(Ibβ-TM) peptide complex (human); remark: listed apart in the source
[6] = molecular target: (Ibβ-TM)-SS-(Ibα-TM)-SS-(Ibβ-TM) peptide complex (human); remark: listed apart in the source

Row | Binder | αβ2 production (% of Ibβ-TM) (Ibα-TM (human) [1]) | αβ2 production (% of Ibβ-TM) (Ibα-TM (human) [2]) | αβ2 production (% of Ibβ-TM) (Ibα-TM (human) [3]) | αβ2 production with IX-TM (% of Ibβ-TM) [4] | αβ2 production with IX-TM (% of Ibβ-TM) [5] | αβ2 production with IX-TM (% of Ibβ-TM) [6]
1 | Ibβ-TM (peptide) GSGGGLCWGALAAQLALLGLGLLHALLLVLLLSRLRRLRARARARAAARLSLTDPLVAERAGTDES | 27.7 % of Ibβ-TM | 20.5 % of Ibβ-TM | 13.5 % of Ibβ-TM |  |  | 
2 | GSVRPGVLWDVALVAVAALGLALLAGLLNATTEALD [IX-TM] |  |  |  | 32.8 % of Ibβ-TM | 29.4 % of Ibβ-TM | 41.2 % of Ibβ-TM
